From patent publication US20220281965A1 (AstraZeneca / MedImmune, published 2022)
Where a chain is given by its changes, count along the chain named. Values belong to the binder of their own block, whether it stands above or below them.

Tests used:
mature human GDF-15 = target: T1, mature human GDF-15 (human, UniProt Q99988 197-308); assay: HTRF epitope competition; competitor DyLight 650 labelled Antibody A; Europium labelled human GDF-15
T1 construct: Homodimer; also called hGDF-15; recombinant hu-GDF15
T1 sequence: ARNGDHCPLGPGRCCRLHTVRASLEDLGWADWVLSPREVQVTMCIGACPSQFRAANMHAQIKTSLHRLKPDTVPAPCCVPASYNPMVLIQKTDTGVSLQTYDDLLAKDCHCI
Source text: Antibodies from the immunizations with human GDF-15, in the form of crude supernatants from the immunization or in the form of purified IgGs, were chosen on the basis that they bind and compete with an epitope recognized by a control anti-GDF-15 antibody “Antibody A”. A biochemical epitope competition format was applied using an HTRF epitope competition assay that measured the binding of DyLight 650 labelled Antibody A to Europium labelled human GDF-15 (Prospec). In the absence of Antibody A binding, there is no detectable FRET fluorescence. When Antibody A binds to GDF-15, the resulting physical proximity between the secondary reagent donor/acceptor pair results in FRET. Competition with an antibody that recognizes the same or similar epitope will result in a dose dependent reduction of the FRET signal. FRET was measured ratiometrically [665 nm (acceptor)/620 nm (donor)] on an Envision plate reader, and IC₅₀ values were determined by curve fitting the data to a four parameter logistic equation using PRISM 6® software (Graphpad).

[1] = target: T2, human BMP7 (R&D Systems 354-BP/CF) (human, UniProt P18075 293-431); assay: antigen presentation ELISA: human BMP7 adsorbed on a Nunc Maxisorp plate, titration of IgG, anti-human IgG-HRP, TMB, absorbance at 450 nm
T2 construct: Bought protein, adsorbed on the ELISA plate
T2 sequence (looked up): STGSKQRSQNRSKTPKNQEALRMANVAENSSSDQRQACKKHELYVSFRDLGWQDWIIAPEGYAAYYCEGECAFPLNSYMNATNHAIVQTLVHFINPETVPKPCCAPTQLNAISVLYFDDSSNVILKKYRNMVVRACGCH
Method: (§1) Purified humanized IgGs were screened for binding to human GDF-15 over two further members of the same family, TGFβ1 (R&D Systems 240-B) and BMP7 (R&D Systems 354-BP/CF), using a standard antigen presentation ELISA. Human GDF-15, human TGFβ1 or human BMP7 were adsorbed onto a Nunc Maxisorp™ plate. After removal of excess unbound antigen, a titration of test IgG was added to the plate. After a 1-hour incubation, the unbound IgG was removed. The extent of IgG binding was determined by addition of an anti-human IgG antibody conjugated to the horseradish peroxidase (HRP) enzyme and measuring the optical absorbance at 450 nm of the product of its reaction with the substrate TMB.

[2] = target: T3, human TGFβ1 (R&D Systems 240-B) (human, UniProt P01137 279-390); assay: antigen presentation ELISA: human TGFβ1 adsorbed on a Nunc Maxisorp plate, titration of IgG, anti-human IgG-HRP, TMB, absorbance at 450 nm
T3 construct: Bought protein, adsorbed on the ELISA plate
Method: as §1

mouse GDF-15 = target: T4, mouse GDF-15 (mouse, UniProt Q9Z0J7 189-303); assay: HTRF binding assay, biotinylated mouse GDF-15
T4 construct: also called mGDF-15
T4 sequence: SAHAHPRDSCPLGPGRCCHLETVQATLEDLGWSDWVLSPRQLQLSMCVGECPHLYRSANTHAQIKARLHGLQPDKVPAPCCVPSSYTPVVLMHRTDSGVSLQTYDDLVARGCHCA
Source text: (§2) Supernatants generated from the immunizations with human GDF-15 and purified IgGs were screened to identify IgGs with specific binding to human, cynomolgus, or mouse GDF-15. The HTRF (Homogeneous Time Resolved Fluorescence) assay is based on detection of a measurable FRET signal upon binding of a titration of test antibody to biotinylated human H202D GDF-15 variant, cynomolgus GDF-15 and mouse GDF-15. Europium cryptate (EuK) labelled Streptavidin and anti-human IgG XL665 (Cis Bio) were used as secondary detection reagents serving as energy donor and acceptor respectively. In the absence of test antibody binding, there is no detectable FRET fluorescence. When test antibody binds to GDF-15, the resulting physical proximity between the secondary reagent donor/acceptor pair results in FRET. FRET was measured ratiometrically [665 nm (acceptor)/620 nm (donor)] on an Envision plate reader, and data plotted using PRISM 6® software (Graphpad).

[3] = target: T5, biotinylated human H202D GDF-15 variant (human, UniProt Q99988 197-308, biotinylated, sites not stated); assay: HTRF binding assay, biotinylated antigen, titration of antibody
T5 construct: also called Human GDF-15 H202D
T5 chain: T1 sequence with H6D
Source text: as §2

[4] = target: T6, biotinylated cynomolgus GDF-15 (cynomolgus, UniProt G7PWZ3 197-308, biotinylated, sites not stated); assay: as above
T6 construct: also called Cyno GDF-15
T6 sequence: T1 sequence with H6R, R21H, A54E, T63M, S64N, I112V
Source text: as §2

T3 sequence (P01137 279-390 limits assumed): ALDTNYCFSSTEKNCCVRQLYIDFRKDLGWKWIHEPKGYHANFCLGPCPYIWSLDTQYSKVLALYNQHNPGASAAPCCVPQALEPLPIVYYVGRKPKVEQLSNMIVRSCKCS

B2: AB1170248 (antibody, IgG1, V domains shown)
VH: QVQLVQSGSELKKPGASVKVSCKASGYTFTDYNMDWVRQAPGKGLEWIGDINPYNGITIYNQKFKGRATLTVDKSTSTAYMELRSLRSDDTAVYYCAREEKLGTSFDYWGQGTTVTVSS
VL: DIQMTQSPSSLSASVGDRVTITCRASENIYSNLAWYQQKPGKAPKLLVYAATNLADGVPSRFSGSGSGTDFTLTISSLQPEDFATYYCQHFYGTPWTFGQGTKLEIK
notes: Humanized IgG1 TM; not shown: human immunoglobulin kappa light chain constant domain
IC50 (mature human GDF-15): 1.58 nM
binding result [1]: no binding (tested: 5 µg/mL)
binding result [2]: no binding (tested: 5 µg/mL)

B4: AB1170246 (antibody, IgG1, V domains shown)
VH: QVQLQESGPGLLKPSQTLSLTCTVSGFSLITSGLGVSWIRQPAGKGLEWLAHIYWDDDKRYNPSLKSRLTISKDTSKNQVSLKLSSVTAADTAVYYCARGGYDGYYDYWGQGTTVTVSS
VL: DVVMTQSPLSLPVTLGQPASISCRSSQSIVHSNGNTNLEWYLQKPGQSPQLLIYKVSNRLSGVPDRFSGSGSGTDFTLKISRVEAEDVGVYYCFQGSHVRTFGQGTKLEIK
notes: as for B2
IC50 (mature human GDF-15): 4.99 nM
binding result [1]: no binding (tested: 5 µg/mL)
binding result [2]: no binding (tested: 5 µg/mL)

B5: AB1170244 (antibody, IgG1, V domains shown)
VH: EVQLVESGGGLVKPGGSLRLSCAASGFTFSSYAMSWVRQAPGKGLEWVAYISSGGDNIYYADTVKGRFTISRDNSKNTLYLQMNSLKTEDTAVYYCTRALVENAYFDYWGQGTTVTVSS
VL: DSVLTQSPDSLAVSLGERATINCRASKSVSTSTYSYMHWYQQKPGQPPKLLIKYASYLESGVPDRFSGSGSGTDFTLKISRVEAEDVGVYYCQHSREFPWTFGGGTKVEIK
notes: as for B2
IC50 (mature human GDF-15): 1.17 nM
binding result [1]: no binding (tested: 5 µg/mL)
binding result [2]: no binding (tested: 5 µg/mL)

B8: AB1170242 (antibody, IgG1, V domains shown)
VH: QVQLQESGPGLLKPSQTLSLTCTVSGFSLSTYGMGVGWIRQPAGKGLEWLANIWWNDDKYYNSALKSRLTISKDTSKNQVSLKLSSVTAADTAVYYCAQEVYGWFAYWGQGTLVTVSS
VL: DIQMTQSPSTLSASVGDRVTITCKASQNVGTNVAWYQQKPGQPPKALIYSASYRYSGVPDRFSGSGSGTDFTLTISSLQAEDVAVYYCQQYNSYPLTFGQGTKLEIK
notes: as for B2
IC50 (mature human GDF-15): 0.288 nM
binding result [1]: no binding (tested: 5 µg/mL)
binding result [2]: no binding (tested: 5 µg/mL)

B9: AB1170249 (antibody, IgG1, V domains shown)
VH: B8 VH with A43L, E100M, V101A, G103S
VL: B8 VL with T10F, V29M, G30D, L96F
notes: as for B2
IC50 (mature human GDF-15): 0.406 nM
binding result [1]: no binding (tested: 5 µg/mL)
binding result [2]: no binding (tested: 5 µg/mL)

More lines, in order of falling IC50 (mature human GDF-15), values ahead:

IC50 (mature human GDF-15): 11.3 nM
binding result [1]: no binding (tested: 5 µg/mL)
binding result [2]: no binding (tested: 5 µg/mL)
B7: AB1170247 (antibody, IgG1, V domains shown)
VH: QVQLVQSGSELKKPGASVKVSCKASGYTFTSYDINWVRQAPGQGLEWIGWIYPRDGISKYNEKFKGRATLTVDTSASTAYMELSSLRSEDTAVYYCAGTYDPAYFDYWGQGTTVTVSS
VL: EIVLTQSPATLSVSPGERATLSCRASQSISYYLHWYQQKPGQAPRLLIKYASQSISGVPDRFSGSGSGTDFTLKISRVEAEDFGVYYCQQSNSWPYTFGGGTKVEIK
notes: as for B2

binding result (mouse GDF-15): no binding
binding result [3]: binds
binding result [4]: binds
IC50 (mature human GDF-15): 6.1 nM
B3: AB1170002 (antibody, V domains shown)
VH: QVTLKESGPGILQPSQTLSLTCSFSGFSLSTYGMGVGWIRQPSGKGLEWLANIWWNDDKYYNSALKSRLTISKDTSNNQVFLKISSVDTADTVTYYCAQVGYDWFAYWGQGTLVTVSS
VL: EIVLTQSPALMAASPGEKVTITCSVSSSISSSNLHWYQQKSETSPKPWIYGTSNLASGVPVRFSGSGSGTSYSLTISSMEAEDAATYYCQQCSSYPLTFGAGTKLELK

IC50 (mature human GDF-15): 2.23 nM
binding result [1]: no binding (tested: 5 µg/mL)
binding result [2]: no binding (tested: 5 µg/mL)
B6: AB1170245 (antibody, IgG1, V domains shown)
VH: B5 VH with N57Y, E102D
VL: DIVLTQSPDSLAVSLGERATINCRASKSVSTSSYSYMHWYQQKPGQPPKLLIKYASYLEFGVPSRFSGSGSGTDFTLTISSLQPEDVATYYCQHSREFPWTFGGGTKVEIK
notes: as for B2

IC50 (mature human GDF-15): 0.155 nM
binding result [1]: no binding (tested: 5 µg/mL)
binding result [2]: no binding (tested: 5 µg/mL)
B1: AB1170243 (antibody, IgG1, V domains shown)
VH: QVQLVQSGSELKKPGASVKVSCKASGYTFTDYNMDWIRQSPGKGLEWIGDINPNNGGTFYNQKFKDRATLTVDKSTSTAYMELRSLRSDDTAVYYCAREEKLYFGLMDYWGQGTTVTVSS
VL: B2 VL with N32Y, A50N, T52K, N53T, D56E, T69I, F91Q, T94S, W96P
notes: Humanized IgG1 TM; also called human anti-human GDF-15 IgG; not shown: human immunoglobulin kappa light chain constant domain
